Results on 15 molecules are retold here after patent US20210292393A1 (published 2021).

Experiment [1] concerns the target SARS-CoV-2 full length spike protein, V483A mutant, expressed on CHO cells (SARS-CoV-2, UniProt P0DTC2 14-1273).
In experiment [2] the target is SARS-CoV-2 full length spike protein, V367F mutant, expressed on CHO cells (SARS-CoV-2, UniProt P0DTC2 14-1273).
In experiment [3] the target is SARS-CoV-2 full length spike protein, D614G mutant, expressed on CHO cells (SARS-CoV-2, UniProt P0DTC2 14-1273).
Experiment [4] addresses SARS-CoV-2 full length spike protein, D614G mutant (SARS-CoV-2, UniProt P0DTC2 14-1273).

B1: antibody 480 (antibody, V domains shown)
VH: QVQLVESGGGVVQPGRSLRLSCAASGFTFSSYAMHWVRQAPGKGLEWVAVISYDGNNKYYADSVKGRFTISRDNSKNTLYLQMNSLRAEDTAVYYCVRTNSGSYYAAFDYWGQGTLVTVSS
VL: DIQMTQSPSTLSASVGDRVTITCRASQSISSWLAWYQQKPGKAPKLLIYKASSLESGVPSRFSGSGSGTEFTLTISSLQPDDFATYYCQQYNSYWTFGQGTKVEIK
On to B1, for which, in experiment [1], the “median fluorescence intensity, fold over isotype control” value (“median fluorescence intensity, fold” for short) was 10.7 fold over isotype.

B2: antibody 496 (antibody, V domains shown)
VH: QVQLVQSGAEVKKPGASVKVSCKASGYTFTDYYIHWVRQAPGQGLEWMGWINPNSGGTNYAQKFQGRLTMTRDTSISTAYMELSRLRSDDTAVYYCARVYSMFREFIINPYYYYYGLDVWGQGTTVTVSS
VL: QSALTQPASVSGSPRQSITISCTGTSSDVGSYNLVSWYQQHPGKAPKLMIYEGSKRPSGVSNRFSGSKSGNTASLAISGLQAEDEANYYCCSYAGSSTLVFGGGTKLTVL
As for B2, the “median fluorescence intensity, fold” value in experiment [1] came to 12.6 fold over isotype.

B3: antibody 368 (antibody, V domains shown)
V domain 1: QITLKESGPTLVKPTETLTLTCAFSGFSLTKTGEAAGWIRQAPGRALEWVTVIFWDDDKRYSPSLQNRLTVTKDTSKNVVVLTMTNVDPVDTATYFCWAMGGPGKEFFGQGTRVAVSS
V domain 2: QSVLTQPPSVSGAPGQRVTVSCTGTSSSIGPYSDVHWYQHIPGKAPRLLIFGTSNRPSGVPARFSGSKSGSSASLVIAGLQAEDEADYYCQSYDSSLGEIYVFGTGTTVTVL
With B3, the “median fluorescence fold over isotype control” value in experiment [2] came out at 31.6 fold over isotype; in experiment [3] it was 64.3 fold over isotype.

B4: antibody 497 (antibody, V domains shown)
VH: QVQLQESGPGLVKPSQTLSLTCTVSGGSINSFGYYWSWIRQHPGKGLEWIGYIYYSGSTDYNPSLNSRVTISLDTSKNQFLLKLTSVTAADTAVYYCAKLTDYYDSSGYSFDYWGQGTLVTVSS
VL: DIQMTQSPSSVSASVGDRVTITCRASQDISRWLAWYQQKPGKAPKLLIYAASSLQSGVPSRFSGRGSGTELTLTISSLQPEDFATYFCQQAYSFPFTFGGGTKVEIK
Regarding B4, in experiment [1], the “median fluorescence intensity, fold” value stood at 22.2 fold over isotype.

B5: antibody 476 (antibody, V domains shown)
VH: QVQLVQSGSELKKPGASVKVSCKASGYTFTSYAMNWVRQAPGQGLEWMGWINTNTGNPTYAQGFTGRFVFSLDTSVSTAYLQISSLKAEDTGVYYCARDHELPNSSSWFGHFEYWGQGTLVTVSS
VL: SYELTQPPSVSVSPGQTARITCSGDALPKQYAYWYQQKAGQAPVLVIYKDSERRSGIPERFSGSSSGTTVTLTISGVQAEDEADYYCQSADSSGTSVVFGGGTKLTVL
Take B5: in experiment [1], the “median fluorescence intensity, fold” value is 14.1 fold over isotype.

B6: antibody 291 (antibody, V domains shown)
VH: QVQLVESGGGVVQPGRSLRLSCAASGFTFSSYAMHWVRQAPGKGLEWVAVISYDGSNKYYADSVKGRFTISRDNSKNTLYLQMNSLRAEDTAVYYCARASGGSYFGGMDVWGQGTTVTVSS
VL: QSALTQPASVSGSPGQSITISCTGTSSDVGGYNYVSWYQQHPGKAPKLMIYEVSNRPSGVSNRFSGSKSGNTASLTISGLQAEDEADYYCSSYTSSSTLYVFGTGTKVTVL
In the case of B6, the “median fluorescence intensity, fold” value in experiment [4] is 8.03 fold over isotype.

B7: antibody 509 (antibody, V domains shown)
VH: QVQLVESGGGVVQPGRSLRLSCAASGFNLSSYAMHWVRQASGKGLEWVSLISYDGSIKYYTDSVKGRFTVSGDNSKNTLFLQMNSLRADDSALYYCVRGGVSGPNSFDLWGQGTTVTVSS
VL: DVVMTQSPLSLPVTLGQPASISCRSSQSLVYSDGNTYVNWFQQRPGQSPRRLIYKVSIRASGVPDRFSGSGSGTDFALKISRVEAEDVGVYYCMQGTHWPVTFGQGTKVEIK
Take B7: the “median fluorescence intensity, fold” value in experiment [1] worked out at 11.4 fold over isotype.

B8: antibody 492 (antibody, V domains shown)
VH: QVQLVESGGGVVQPGRSLRLSCAASGFTFSSYGMHWVRQAPGKGLEWVAVISYDGSNKYYADSVKGRFTISRDNSKNTLYLQMNSLRAEDTAVYYCAKDGILWWWWGYFDYWGQGTLVTVSS
VL: QSVLTQPPSVSGAPGQRVTISCTGSSSNIGAGFDVHWYQQLPGTAPKLLIYGNSNRPSGVPDRFSGSKSGTSASLAITGLQAEDEADYYCQSYDSSLSVVFGGGTKLTVL
B8: the “median fluorescence intensity, fold” value in experiment [1] stood at 7.71 fold over isotype.

B9: antibody 477 (antibody, V domains shown)
VH: QVQLVESGGGVVQPGRSLRLSCAASGITFSSYAMHWVRQAPGKGLEWVAVISYDGSDKYHADSVKGRFAISRDNSKNTLYLQMNSLRAEDTAVYYCAKDKGIAVAGTGWIRPDPEYYFDYWGQGTLVTVSS
VL: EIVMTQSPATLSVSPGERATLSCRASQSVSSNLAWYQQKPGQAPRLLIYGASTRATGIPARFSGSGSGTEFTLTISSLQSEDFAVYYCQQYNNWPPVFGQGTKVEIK
On to B9, for which the “median fluorescence intensity, fold” value in experiment [1] came to 23.9 fold over isotype.

B10: antibody 475 (antibody, V domains shown)
VH: QVQLVESGGGVVQPGRSLRLSCAASGFTFSSYAMHWVRQAPGKGLEWVTFISHEGSNKYYADSVKGRFTISRDNSKNTLYLQMNSLRAEDTAVYYCARTFEYSSSSATGDFDYWGQGTLVTVSS
VL: QSVLTQPPSVSGAPGQRVTISCTGSSSNIGAGYDVHWYQQLPGTAPKLLIYGNSNRPSGVPDRFSGSKSGTSASLAITGLQAEDEADYYCQSYDSSLSGVVFGGGTKLTVL
Consider B10, for which, in experiment [1], the “median fluorescence intensity, fold” value stood at 20.2 fold over isotype.

B11: antibody 504 (antibody, V domains shown)
VH: QVQLVESGGGVVQPGRSLRLSCAASGFTFSSYGMHWVRQAPGKGLEWVAVISYDGSNKYYADSVKGRFTISRDNSKNTLYLQMNSLRAEDTAVYYCAKGGGGGYCSGGSCYSHYFDYWGQGTLVTVSS
VL: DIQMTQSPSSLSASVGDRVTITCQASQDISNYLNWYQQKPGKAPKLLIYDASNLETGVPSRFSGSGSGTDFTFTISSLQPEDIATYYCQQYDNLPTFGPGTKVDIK
B11: the “median fluorescence intensity, fold” value in experiment [1] came to 2.47 fold over isotype.

B12: antibody 510 (antibody, V domains shown)
VH: QVQLQESGPGLVKPSQTLSLTCTVSGGSISSGSYYWSWIRQPAGKGLEWIGRIYTSGSTNYNPSLKSRVTISVDTSKNQFSLKLSSVTAADTAVYYCAREGQWLYRFDYWGQGTLVTVSS
VL: QSALTQPASVSGSPGQSITISCTGTSSDVGNYDLVSWYQQHPGKAPKLVIYGVTKRPSGVSNRFSGSKSGNTASLTISGLQAEDEADYYCCSYATGDTSVFGTGTKVTVL
Turning to B12, the “median fluorescence intensity, fold” value in experiment [1] is 1.06 fold over isotype.

B13: antibody 370 (antibody, V domains shown)
VH: QVQLVESGGGVVPPGRSLSLPCAASGFTFSAYAMHWLRQAPGKGLEWVAVISYDGTVKYVADSVRGRFTISRDNSNNTLYLQMTSLRSDDTAVYYCARDLGALAAAPTVYFVHWGQGTLVTVSS
VL: SYVLTQPPSVSVAPGKTATITCAGEDIGRKSVHWYQQKPGQAPVLVIFYYSDRPSGIPDRFSGSVSGNTATLTIGRVEAGDEADYFCQVWDRTTNHVIFGGGTKVTVL
Regarding B13, the figures for the “median fluorescence fold over isotype control” value in experiment [2] and in experiment [3] were 35.3 fold over isotype and 9.47 fold over isotype, respectively.

B14: antibody 258 (antibody, V domains shown)
VH: QVQLQESGPGLVKPSETLSLTCTVSGGSISSYYWSWIRQPAGKGLEWIGRIYTSGSTNYNPSLKSRVTMSVDTSKNQFSLKLSSVTAADTAVYYCAAGYGSIDYWGQGTLVTVSS
VL: not shown
For B14, the “median fluorescence intensity, fold” value in experiment [4] is 6.88 fold over isotype.

B15: antibody 474 (antibody, V domains shown)
VH: EVQLVESGGGLVQPGGSLRLSCAASGFTFSSYWMHWVRQAPGKGLVWVSRINSDGSSTSYADSVKGRFTISRDNAKNTLYRQMNSLRAEDTAVYYCALGPLDIVGSYYYYGMDVWGQGTTVTVSS
VL: NFMLTQPHSVSESPGKTVTISCTGSSGSIASNYVQWYQQRPGSAPTTVIYEDNQRPSGVPDRFSGSIDSSSNSASLTISGLKTEDEADYYCQSYDSSNQDVVFGGGTKLTVL
Take B15: the “median fluorescence intensity, fold” value in experiment [1] was determined as 1.05 fold over isotype.
